Experimental data as given in patent publication US20250222125A1, “Anti-FGFR2b Antibodies, Conjugates and Methods of Use” (BeiGene, Ltd., priority 2024, published 2025).

Key:
[1] = test system: co-inoculated HSC-39+SNU-5 xenografts; experiment: Co-inoculated HSC-39+SNU-5 gastric cancer xenografts; type: in vivo, BALB/c nude mice; settings: HSC-39:SNU-5 ratios of 2:1 and 5:1, single dose 10 mpk i.v.
Description: HSC-39 and SNU-5 were cultured in Dulbecco's modified Eagle's medium (DMEM), supplemented with 10% (v/v) fetal bovine serum, 100 U/ml penicillin, and 100 μg/mL streptomycin. Cells were incubated in a humidified incubator with 5% CO2 at 37° C. On the day of implantation, cells were collected and washed with serum-free medium. Six- to eight-week-old female BALB/c nude mice were purchased and housed in ventilated cages, given food and water ad libitum, and allowed to acclimate for approximately 1 week prior to inoculation. A total of 5×10^6 HSC-39 and SNU-5 cancer cells mixed with matrigel at a ratio of 2:1 or 5:1 were implanted subcutaneously into the mouse flank. […] Tumor volumes were measured twice weekly. Data is presented as mean tumor volume ±standard error of the mean (SEM). In the vehicle group at a 2:1 HSC-39:SNU-5 ratio, there were ˜50% FGFR2b positive cells in the tumor at the starting point with ˜40% at the end point. In the vehicle group at a 5:1 HSC-39:SNU-5 ratio, there were ˜60% FGFR2b positive cells in the tumor at the starting point with ˜20% at the end point.

[2] = test system: phosphorylated FGFR in SNU-16 cells; experiment: Inhibition of FGFR2 signaling in SNU-16 cells (Western blot of pFGFR); type: cell-based; settings: antibody 10 μg/ml, 2 hours
Description: Inhibition of the FGFR2 signaling pathway by the humanized antibodies was investigated. SNU-16 cells were grown in RPMI-1640 medium with 10% FBS, collected and washed twice with free medium and then seeded in 12-well plates at 1.5E6 cells/well in serum-free RPMI-1640. The plates were incubated at 37° C., 5% CO2, and 95% humidity in an incubator overnight. Anti-FGFR2b antibodies at a concentration of 10 μg/ml were added to the assay plates. Recombinant human FGF7 or FGF10 protein (10 ng/ml) in the presence of heparin (5 μg/ml) was added to the assay plates. The plates were incubated in a 37° C., 5% CO2, 95% humidity incubator for 2 hours. Following 2 hours incubation, cells were collected and washed twice with cold PBS. NP40 lysis buffer containing 1×PMSF and 1× Protease plus phosphatase inhibitors were added to the cell pellets. The mixture was pipetted up and down to suspend the pellet. The mixture was inverted gently and each placed for 10 minutes on ice, for a total of 30 minutes. The mixture was centrifuged at 12000× rpm for 10 minutes to pellet the cell debris. The supernatant was transferred to a new tube to quantify total protein concentration by BCA Kit. The protein samples were then split and stored at −80° C. for further Western blotting to detect the expression of pFGFR and total FGFR2. […]

293T blank cells = experiment: FACS non-specific binding, parental 293T blank cells (Example 4)
Description: (§1) The binding affinity and specificity of purified anti-FGFR2b antibodies were determined by ELISA and FACS. […] After incubation and washing, the plates were developed with HRP substrate and absorbance was measured. […] After washing twice with FACS buffer, diluted Alexa Fluor 647 goat anti-human IgG secondary antibody was added and incubated with cells for 30 minutes at 4° C. in the dark. After washing twice with FACS buffer, cells were resuspended with FACS buffer and read using a Becton Dickinson LSR FortessaTM cell analyzer. Non-specific binding of these antibodies was evaluated by FACS binding against parental 293T blank cells. Titration curves were generated using a sigmoidal dose-response of nonlinear fit from GraphPadTM Software by Dotmatics.

Human FGFR2b OE cells = molecular target: T1, Human FGFR2b OE cells (Homo sapiens, UniProt P21802); experiment: FACS cellular binding, human FGFR2b OE cells (Example 4)
T1 construct: expressed in transfected cells; host or cells: 293T
T1 sequence (P21802 22-822 isoform P21802-3 limits assumed): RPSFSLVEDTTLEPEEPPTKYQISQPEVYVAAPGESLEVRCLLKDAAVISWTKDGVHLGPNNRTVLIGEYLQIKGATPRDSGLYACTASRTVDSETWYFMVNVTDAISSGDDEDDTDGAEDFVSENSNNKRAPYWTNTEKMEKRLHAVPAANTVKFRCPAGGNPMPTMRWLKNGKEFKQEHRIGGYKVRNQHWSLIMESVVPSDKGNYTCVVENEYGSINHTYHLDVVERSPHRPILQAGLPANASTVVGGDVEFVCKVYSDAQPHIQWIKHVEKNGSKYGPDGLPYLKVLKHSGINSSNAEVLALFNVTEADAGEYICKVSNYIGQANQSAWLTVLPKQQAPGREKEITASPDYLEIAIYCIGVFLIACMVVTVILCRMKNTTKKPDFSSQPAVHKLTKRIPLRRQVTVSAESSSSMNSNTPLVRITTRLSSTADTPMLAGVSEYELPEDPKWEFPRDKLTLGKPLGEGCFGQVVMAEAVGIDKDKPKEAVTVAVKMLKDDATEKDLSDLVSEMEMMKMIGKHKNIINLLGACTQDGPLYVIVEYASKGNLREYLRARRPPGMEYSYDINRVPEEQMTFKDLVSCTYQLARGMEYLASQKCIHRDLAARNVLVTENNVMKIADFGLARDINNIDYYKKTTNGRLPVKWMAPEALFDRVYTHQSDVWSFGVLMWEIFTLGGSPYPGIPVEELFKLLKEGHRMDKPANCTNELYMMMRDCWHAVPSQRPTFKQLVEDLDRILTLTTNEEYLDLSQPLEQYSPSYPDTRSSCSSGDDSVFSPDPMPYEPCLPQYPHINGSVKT
Description: as §1

Human FGFR2c = Human FGFR2c (Homo sapiens, UniProt P21802); experiment: ELISA protein binding to human FGFR2c (Example 4); settings: coated protein
Sequence of Human FGFR2c (P21802 22-821): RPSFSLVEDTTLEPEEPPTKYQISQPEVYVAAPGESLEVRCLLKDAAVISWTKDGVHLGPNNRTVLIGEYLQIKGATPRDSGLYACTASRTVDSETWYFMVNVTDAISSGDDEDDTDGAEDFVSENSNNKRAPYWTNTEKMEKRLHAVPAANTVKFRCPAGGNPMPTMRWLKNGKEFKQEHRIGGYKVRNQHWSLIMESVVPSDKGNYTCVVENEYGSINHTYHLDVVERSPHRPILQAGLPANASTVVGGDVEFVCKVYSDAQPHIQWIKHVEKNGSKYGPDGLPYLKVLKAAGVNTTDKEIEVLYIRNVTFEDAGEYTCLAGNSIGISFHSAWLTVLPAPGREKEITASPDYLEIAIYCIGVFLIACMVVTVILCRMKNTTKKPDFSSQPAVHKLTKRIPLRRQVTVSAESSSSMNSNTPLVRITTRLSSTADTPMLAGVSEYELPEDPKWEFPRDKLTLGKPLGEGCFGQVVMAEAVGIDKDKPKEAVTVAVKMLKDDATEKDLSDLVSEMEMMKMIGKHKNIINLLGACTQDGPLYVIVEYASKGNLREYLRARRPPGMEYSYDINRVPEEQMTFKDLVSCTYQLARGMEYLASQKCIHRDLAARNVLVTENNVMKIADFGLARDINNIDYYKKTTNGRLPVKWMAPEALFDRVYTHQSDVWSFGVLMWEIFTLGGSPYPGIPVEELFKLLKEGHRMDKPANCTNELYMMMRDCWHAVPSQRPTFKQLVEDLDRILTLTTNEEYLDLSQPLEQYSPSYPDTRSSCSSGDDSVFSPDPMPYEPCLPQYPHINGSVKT
Description: as §1

Murine FGFR2b OE cells = molecular target: T2, Murine FGFR2b OE cells (Mus musculus, UniProt P21803); experiment: FACS cellular binding, murine FGFR2b OE cells (Example 4)
T2 construct: expressed in transfected cells; host or cells: 293T
T2 sequence (P21803 22-707 isoform P21803-2 limits assumed): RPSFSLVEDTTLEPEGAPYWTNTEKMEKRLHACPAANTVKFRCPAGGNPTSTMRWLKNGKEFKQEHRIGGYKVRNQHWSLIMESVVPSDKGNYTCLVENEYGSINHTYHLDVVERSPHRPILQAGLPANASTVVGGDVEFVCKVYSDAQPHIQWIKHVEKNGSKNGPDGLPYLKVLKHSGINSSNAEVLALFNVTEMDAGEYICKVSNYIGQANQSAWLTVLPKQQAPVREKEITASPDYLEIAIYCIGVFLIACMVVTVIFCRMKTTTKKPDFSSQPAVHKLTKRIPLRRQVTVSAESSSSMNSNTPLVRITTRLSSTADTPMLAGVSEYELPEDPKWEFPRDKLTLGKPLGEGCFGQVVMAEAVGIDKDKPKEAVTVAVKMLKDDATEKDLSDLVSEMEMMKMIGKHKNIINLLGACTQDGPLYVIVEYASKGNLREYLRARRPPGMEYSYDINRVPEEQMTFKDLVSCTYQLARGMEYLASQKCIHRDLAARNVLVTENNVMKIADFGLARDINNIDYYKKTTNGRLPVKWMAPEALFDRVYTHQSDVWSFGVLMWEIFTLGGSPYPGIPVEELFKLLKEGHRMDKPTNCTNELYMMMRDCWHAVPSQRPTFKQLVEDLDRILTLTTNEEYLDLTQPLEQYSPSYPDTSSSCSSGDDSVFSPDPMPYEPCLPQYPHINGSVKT
Description: as §1

[3] = patients; cited from earlier work
human FGFR2b = human FGFR2b (Homo sapiens, UniProt P21802); experiment: ELISA protein binding to human FGFR2b (Example 4); settings: coated protein
Sequence of human FGFR2b (P21802 22-822 isoform P21802-3 limits assumed): as the sequence (P21802 22-822 isoform P21802-3 limits assumed) above
Description: as §1

[4] = molecular target: T3, soluble human FGFR2b proteins (Homo sapiens, UniProt P21802); experiment: SPR binding kinetics (Biacore 8K, Example 5); settings: room temperature
T3 construct: soluble human FGFR2b proteins (his tag, in-house generated); His tag; made in house
T3 sequence (P21802 22-378 isoform P21802-3 limits assumed): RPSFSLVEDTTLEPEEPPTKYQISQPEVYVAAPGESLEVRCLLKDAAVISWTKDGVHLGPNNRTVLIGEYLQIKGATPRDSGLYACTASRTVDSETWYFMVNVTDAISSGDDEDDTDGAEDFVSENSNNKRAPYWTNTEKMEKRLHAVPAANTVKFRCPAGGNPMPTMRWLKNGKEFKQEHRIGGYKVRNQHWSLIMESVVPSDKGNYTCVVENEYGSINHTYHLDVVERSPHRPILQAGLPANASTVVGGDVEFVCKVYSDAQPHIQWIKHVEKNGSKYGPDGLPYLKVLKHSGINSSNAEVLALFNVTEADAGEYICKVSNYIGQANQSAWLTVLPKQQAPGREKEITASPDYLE
Description: The binding affinity and kinetics of purified anti-FGFR2b antibodies were determined by surface plasmon resonance (Biacore 8K, GE Life Sciences) at room temperature. Briefly, mouse anti-human IgG Fc antibody was immobilized via amine coupling onto a activated CM5 biosensor chip (Cat. No. BR100530, GE Life Sciences). Purified monoclonal antibody candidates were flowed over the chip surface and captured by anti-human IgG antibody. Then a serial dilution of soluble human FGFR2b proteins (his tag, in-house generated) were injected over the antibodies captured surface and changes in surface plasmon resonance signals were analyzed to calculate the association rates (kon) and dissociation rates (koff) by using the one-to-one Langmuir binding model (BIA Evaluation Software, GE Life Sciences). The equilibrium dissociation constant (KD) was calculated as the ratio koff/kon.

BaF3_hFGFR2b OE cells = experiment: Ligand-induced proliferation inhibition assay in BaF3_hFGFR2b OE cells; type: cell-based; settings: antibody 10 μg/ml, heparin 5 μg/ml, 72 hours
Description: The inhibition activity of antibody on ligand-induced cell proliferation was evaluated in an FGFR2b engineered BaF3 cell line system (BaF3_hFGFR2b OE). BaF3 cells are dependent on interleukin-3 (IL-3) for growth. The BaF3 system allows for testing of kinases and kinase inhibitors. Some protein kinases can render BaF3 cells to be independent of IL-3, whereas kinase inhibitors antagonize this effect. Cells were seeded in 96-well plates at 30,000 cells/well in RPMI-1640 medium containing 10% fetal bovine serum. Anti-FGFR2b antibodies at a concentration of 10 μg/ml were added to the assay plates. Recombinant human FGF7 or FGF10 protein (40 ng/ml) in the presence of heparin (5 μg/ml) was added to the assay plates. The plates were incubated at 37° C., 5% CO2, 95% humidity in an incubator for 72 hours. Following incubation, 50 μl Cell Titer Glo reagent was added to each well and the plates were mixed for 1 min and then incubated at RT for 10 min. Luminescence signals were detected and recorded.
The Ba/F3 system is used to investigate downstream oncogenic signaling pathways and the susceptibility of driver variants to therapeutics. Driver-addicted Ba/F3 cells die when the driver-engaged signaling pathway is inhibited, and this effect can be rescued by re-introduction of […].
FIGS. 6 and 7 show the results of Ba/F3 proliferation assays. […]

Human FGFR2c OE cells = Human FGFR2c OE cells (Homo sapiens, UniProt P21802); experiment: FACS cellular binding, human FGFR2c OE cells (Example 4)
Sequence of Human FGFR2c OE cells (P21802 22-821): as the sequence (P21802 22-821) above
Description: as §1

Substance: BGA1421: comparator antibody bemarituzumab, un-conjugated; HC SEQ ID NO: 35, LC SEQ ID NO: 36 [reference compound]
- tumor growth [1]: inhibited tumor growth but was less potent
- FGF7-induced FGFR phosphorylation ([2]; FGF7 10 ng/ml): down-regulation of phosphorylated FGFR
- FGF10-induced FGFR phosphorylation ([2]; FGF10 10 ng/ml): down-regulation of phosphorylated FGFR
- 293T blank cells binding Emax (293T blank cells): 18 MFI
- EC50 (Human FGFR2b OE cells): 0.48 nM
- Human FGFR2c binding Emax(OD450) (Human FGFR2c): 0.09 OD450
- EC50 (Murine FGFR2b OE cells): 0.81 nM
- treatment discontinuation rate caused by corneal toxicity [3]: 26%
- EC50 (human FGFR2b): 0.61 nM
- Human FGFR2b binding Emax(OD450) (human FGFR2b): 2.62 OD450
- ka ([4]; antibody captured): 104000 M⁻¹ s⁻¹
- kd ([4]; antibody captured): 0.00232 s⁻¹
- Kd ([4]; koff/kon): 22.2 nM
- inhibition of FGF7-induced BaF3_hFGFR2b cell proliferation (BaF3_hFGFR2b OE cells; FGF7 40 ng/ml): potently inhibit
- inhibition of FGF10-induced BaF3_hFGFR2b cell proliferation (BaF3_hFGFR2b OE cells; FGF10 40 ng/ml): potently inhibit
- Human FGFR2c OE cells binding Emax (Human FGFR2c OE cells): 40 MFI
